The values below come from patent US20220119534A1 (DRAGONFLY THERAPEUTICS, published 2022).

Numbering of substitutions follows the chain as printed. In names and notes the source's numbering stands. Several values for one entry are separate records, joined by “and”; a condition that tells them apart may be missing. Identical values can stand only once.

For one assay, the target named is T1, mFc-cNKG2D (cynomolgus monkey, UniProt P61252 73-216).
T1 construct: extracellular domain; Made in house (Dragonfly Tx); also called recombinant cyno NKG2D extracellular domain (ECD); mFc-tagged cyno NKG2D dimer; not shown: mouse Fc tag
T1 sequence (looked up): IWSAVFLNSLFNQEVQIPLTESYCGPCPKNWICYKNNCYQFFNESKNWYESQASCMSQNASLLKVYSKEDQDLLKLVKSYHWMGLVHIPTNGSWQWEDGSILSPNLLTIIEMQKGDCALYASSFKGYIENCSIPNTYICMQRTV
Nature of the assay: SPR Biacore 37 C; mFc-tagged cyno NKG2D dimer, TriNKET as analyte; 1:1 kinetic fit. A general note: SPR reads the build-up and loss of mass on a sensor chip optically.

For assay [1], the target named is T2, Human CLEC12A-His (human, UniProt Q5QGZ9 65-265).
T2 construct: Recombinant soluble protein made in house (Dragonfly Tx); The hCLEC12A spot of the HuProt array is written under this molecule as well; also called hCLEC12A-His; hCLEC12A; not shown: His tag
T2 sequence: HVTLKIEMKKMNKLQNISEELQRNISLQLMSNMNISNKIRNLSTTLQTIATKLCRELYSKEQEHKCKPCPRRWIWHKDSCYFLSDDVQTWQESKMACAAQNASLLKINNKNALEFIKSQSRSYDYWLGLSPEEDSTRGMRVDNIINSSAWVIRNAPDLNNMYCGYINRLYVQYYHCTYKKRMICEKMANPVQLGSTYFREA
Briefly: SPR Biacore 8K 37 C; TriNKET captured on anti-hFc chip, hCLEC12A-His as analyte; 1:1 fit; control, n=4.

The target of assay [2] is T3, Human CLEC12A expressed on cells (Ba/F3-hCLEC12A, PL21, HL60) (human, UniProt Q5QGZ9 1-265).
T3 sequence: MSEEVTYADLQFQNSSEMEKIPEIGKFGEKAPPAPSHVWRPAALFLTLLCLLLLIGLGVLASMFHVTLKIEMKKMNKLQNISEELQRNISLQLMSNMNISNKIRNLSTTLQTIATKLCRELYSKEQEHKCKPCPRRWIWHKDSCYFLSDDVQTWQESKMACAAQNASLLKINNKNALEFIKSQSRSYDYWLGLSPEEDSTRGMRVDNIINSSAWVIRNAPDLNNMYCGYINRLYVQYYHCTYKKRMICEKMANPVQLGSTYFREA
Nature of the assay: cell-based or functional assay.

The target of assay [3] is T4, Human CLEC12A-His (recombinant, K244 WT) (human, UniProt Q5QGZ9 65-265).
T4 construct: Made in house (Dragonfly Tx); also called hCLEC12A; hCLEC12A-His; not shown: His tag
T4 sequence: T2 sequence
Briefly: SPR, two-state fit (kd1); after 4 wks 40C in CST pH 7.0.

Assay [4] concerns the target T3, Human CLEC12A expressed on cells …. Nature of the assay: cell-based or functional assay. The source holds these as a separate data set.
The target of assay [5] is T4, Human CLEC12A-His (recombinant, K244 WT). Nature of the assay: SPR, two-state fit (kd1); control (fully purified protein study).
Procedure: (§1) Briefly, human Fc specific antibodies were covalently immobilized at a density ˜8000-10000 resonance units (RU) on carboxy methyl dextran matrix of a CM5 biosensor chip via amine-coupling chemistry to create an anti-hFc IgG chip. […] Association was monitored for 300 seconds and dissociation was monitored for 600 seconds. Surfaces were regenerated between cycles with three pulses of 10 mM glycine-HCl, pH 1.7 injected for 20 seconds at 100 μl/min. HBS-EP+ (1×) with 0.1 mg/ml BSA was used as running buffer throughout the experiment. Experiments were performed at physiological temperature of 37° C. To obtain kinetic rate constants and overall binding affinity, double-referenced data were fit to a two-state kinetic model using Biacore 8K Insight Evaluation software (Cytiva).
In assay [6] the target is T3, Human CLEC12A expressed on cells …. Nature of the assay: flow cytometry on PL21 AML cells.
Source text: The EC50 values were derived from the cell binding curves using GraphPad Prism software (four parameter logistic non-linear regression curve fitting model).
A further assay deals with T5, Human CD64 (FcγRI) (human, UniProt P12314 16-288, biotinylated).
T5 construct: Bought recombinant receptor; also called hFcγRI; Human FcγRI
T5 sequence (P12314 16-288 limits assumed): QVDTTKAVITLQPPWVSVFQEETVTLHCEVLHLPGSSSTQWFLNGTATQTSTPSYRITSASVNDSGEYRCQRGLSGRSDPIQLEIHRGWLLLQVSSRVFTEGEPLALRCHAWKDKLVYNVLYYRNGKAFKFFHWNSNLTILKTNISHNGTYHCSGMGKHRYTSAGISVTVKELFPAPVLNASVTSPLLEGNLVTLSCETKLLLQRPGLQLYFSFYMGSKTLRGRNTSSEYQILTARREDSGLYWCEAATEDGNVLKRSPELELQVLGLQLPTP
Briefly: SPR, summary of FcγR affinities.

Assay [7] has as its target T4, Human CLEC12A-His (recombinant, K244 WT). Briefly: SPR, two-state fit (kd1); after low pH hold.
Procedure: as §1
For another assay, the target named is T6, Human CD16a V158 (human, UniProt P08637 17-208, biotinylated).
T6 construct: Bought recombinant receptor; also called hCD16a (V158); hFcγRIIIa V158
T6 sequence (P08637 17-208 F176V limits assumed): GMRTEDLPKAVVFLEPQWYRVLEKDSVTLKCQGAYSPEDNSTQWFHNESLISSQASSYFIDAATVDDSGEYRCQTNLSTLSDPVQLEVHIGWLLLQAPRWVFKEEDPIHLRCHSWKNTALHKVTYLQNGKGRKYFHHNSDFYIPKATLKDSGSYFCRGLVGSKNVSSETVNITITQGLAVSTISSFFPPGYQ
Nature of the assay: SPR; sample after 4 weeks at 40 C in CST pH 7.0.

A further assay concerns the target T7, mFc-hNKG2D (human, UniProt P26718 73-216).
T7 construct: extracellular domain; Recombinant mFc-tagged NKG2D dimer, made in house; also called human NKG2D; not shown: mouse Fc tag
T7 sequence (looked up): T1 sequence (looked up) with N43D, I133T
Briefly: SPR; sample after 4 weeks at 40 C in CST pH 7.0.

In assay [8] the target is T8, Human CLEC12A-His (human, UniProt Q5QGZ9 65-265).
T8 construct: Recombinant soluble protein made in house; also called hCLEC12A-His; hCLEC12A; not shown: His tag
T8 sequence: T2 sequence
Briefly: SPR; sample after 4 weeks at 40 C in CST pH 7.0.

For assay [9], the target named is T9, recombinant human CD32a H131 (human, UniProt P12318 36-218, limits assumed, biotinylated).
T9 construct: also called FcγRIIa H131
T9 sequence (looked up): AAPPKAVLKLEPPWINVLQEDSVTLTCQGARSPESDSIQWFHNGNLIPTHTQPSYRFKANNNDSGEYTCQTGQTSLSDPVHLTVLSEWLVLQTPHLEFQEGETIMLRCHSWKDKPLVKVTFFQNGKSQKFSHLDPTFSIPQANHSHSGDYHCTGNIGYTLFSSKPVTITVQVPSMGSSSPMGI
Briefly: SPR 25C, steady state.

Assay [10] has as its target T10, recombinant human CD16a V158 (human, UniProt P08637 17-208, biotinylated).
T10 construct: also called FcγRIIIa V158; hCD16aV
Nature of the assay: SPR 25C.

Assay [11] has as its target T11, recombinant human CD16a F158 (human, UniProt P08637 17-208).
T11 construct: also called FcγRIIIa F158
Nature of the assay: SPR 25C.

Broadly, the koff is a measure of how fast the partners let go of each other. The kon is the rate constant with which the complex forms. Lower therefore signals slow association. The Kd is a measure of binding affinity in units of concentration. The term EC50 denotes the concentration needed to bring the measured effect to its halfway point. Higher therefore signals weaker potency.

T10 sequence (P08637 17-208 F176V limits assumed): as the sequence (P08637 17-208 F176V limits assumed) above
T11 sequence (P08637 17-208 limits assumed): as the sequence (P08637 17-208 F176V limits assumed) above, with V160F counted along it
Procedure for Human CD64 (FcγRI): Human and cynomolgus CD64, high and low affinity alleles of CD16a (V158 and F158, respectively), two alleles of CD32a (H131 and R131), CD16b, CD32b and cynomolgus CD16 were captured via biotin on a primed (according to the manufacturers instruction) Biacore chip. […] Due to irreversibility of streptavidin-biotin interaction, the capture step for all receptors except FcγRI (CD64) was performed just once prior to the start of the binding experiment. hCD64 and cyno CD64 capture on the CAP chip surface was performed during each cycle in accordance with the manufacturer's instructions for the Biotin CAPture kit.
Detailed description of each individual receptor binding is presented below.

B1: F3'-1602 TriNKET (bispecific antibody, human IgG1, kappa)
chain: QLQLQESGPGLVKPSETLSLTCTVSGFSLTNYGLHWIRQPPGKCLEWIGVIWSGGKTDYNPSLKSRVTISKDTSKNQFSLKLSSVQAADTAVYYCAKYDYDDSLDYWGQGTLVTVSSGGGGSGGGGSGGGGSGGGGSDIQMTQSPSSLSASVGDRVTITCHASQNINFWLSWYQQKPGKAPKLLIYEASNLHTGVPSRFSGSGSGTRFTLTISSLQPEDIATYYCQQSHSYPLTFGCGTKLEIKGSDKTHTCPPCPAPELLGGPSVFLFPPKPKDTLMISRTPEVTCVVVDVSHEDPEVKFNWYVDGVEVHNAKTKPREEQYNSTYRVVSVLTVLHQDWLNGKEYKCKVSNKALPAPIEKTISKAKGQPREPRVYTLPPCRDELTKNQVSLTCLVKGFYPSDIAVEWESNGQPENNYKTTPPVLVSDGSFTLYSKLTVDKSRWQQGNVFSCSVMHEALHNHYTQKSLSLSPG
heavy: EVQLVESGGGLVKPGGSLRLSCAASGFTFSSYSMNWVRQAPGKGLEWVSSISSSSSYIYYADSVKGRFTISRDNAKNSLYLQMNSLRAEDTAVYYCARGAPIGAAAGWFDPWGQGTLVTVSSASTKGPSVFPLAPSSKSTSGGTAALGCLVKDYFPEPVTVSWNSGALTSGVHTFPAVLQSSGLYSLSSVVTVPSSSLGTQTYICNVNHKPSNTKVDKKVEPKSCDKTHTCPPCPAPELLGGPSVFLFPPKPKDTLMISRTPEVTCVVVDVSHEDPEVKFNWYVDGVEVHNAKTKPREEQYNSTYRVVSVLTVLHQDWLNGKEYKCKVSNKALPAPIEKTISKAKGQPREPQVCTLPPSRDELTENQVSLTCLVKGFYPSDIAVEWESNGQPENNYKTTPPVLDSDGSFFLYSWLTVDKSRWQQGNVFSCSVMHEALHNHYTQKSLSLSPG
light: DIQMTQSPSSVSASVGDRVTITCRASQGISSWLAWYQQKPGKAPKLLIYAASSLQSGVPSRFSGSGSGTDFTLTISSLQPEDFATYYCQQGVSFPRTFGGGTKVEIKRTVAAPSVFIFPPSDEQLKSGTASVVCLLNNFYPREAKVQWKVDNALQSGNSQESVTEQDSKDSTYSLSSTLTLSKADYEKHKVYACEVTHQGLSSPVTKSFNRGEC
notes: Trispecific F3' format: CLEC12A scFv-Fc paired with NKG2D Fab-Fc; Stressed and control samples of the stability studies are the same molecule; also called AB0237
As for B1, in the assay with mFc-cNKG2D, the off-rate (koff) was 0.147 s⁻¹ and 0.136 s⁻¹ and 0.145 s⁻¹ and 0.135 s⁻¹; the kon is 177000 M⁻¹ s⁻¹ and 164000 M⁻¹ s⁻¹ and 156000 M⁻¹ s⁻¹ and 176000 M⁻¹ s⁻¹. In the assay with Human CLEC12A-His [1], the Kd was 0.638 nM, the off-rate constant (koff) is 0.000433 s⁻¹ and the kon was 678000 M⁻¹ s⁻¹.

B2: AB0089 TriNKET (bispecific antibody, human IgG1, kappa)
chain: B1 chain with S53V, K56A, K71V, Y98G, D101G, S103T, R207D, I220F
heavy: B1 heavy
light: B1 light
notes: F3' format heterodimer of three chains; human IgG1 Fc with EW-RVT and Y349C/S354C mutations; also called AB0089 Lot AB0089-002; CLEC12A TriNKET AB0089
As for B2, in [2], the “EC50, rested NK cells lysis of HL60 cells (mean of four donors)” value stood at 0.09 nM. The figures for the off-rate (koff) in [3], in assay [5] and in assay [7] were 0.0373 s⁻¹, 0.0272 s⁻¹ and 0.0465 s⁻¹, respectively. Besides, the “EC50, cytotoxicity potency; after pH 8, 40C, 2 wks” value in [4] worked out at 0.23 nM. Further, the “EC50, cytotoxicity potency; control sample” value in [4] was 0.11 nM. This molecule also had an EC50 in assay [6] of 0.45 nM. The same molecule gave a dissociation constant (Kd) with Human CD64 (FcγRI) of 5.1 nM.

B3: AB0192 TriNKET (other)
chain: EVQLVESGGGVVQPGGSLRLSCAASGFTFNAFGMHWVRQAPGKCLEWVAFISSGSTSIYYANTVKGRFTISRDNSKNTLYLQMNSLRAEDTAVYYCARDGYPTGGAMDYWGQGTSVTVSSGGGGSGGGGSGGGGSGGGGSDIQMTQSPSSLSASVGDRVTITCKASQDIYNYLSWFQQKPGKAPKPLIYRANILVSGVPSRFSGSGSGQDYTFTISSLQPEDIATYYCLQFDAFPFTFGCGTKLEIKGSDKTHTCPPCPAPELLGGPSVFLFPPKPKDTLMISRTPEVTCVVVDVSHEDPEVKFNWYVDGVEVHNAKTKPREEQYNSTYRVVSVLTVLHQDWLNGKEYKCKVSNKALPAPIEKTISKAKGQPREPRVYTLPPCRDELTKNQVSLTCLVKGFYPSDIAVEWESNGQPENNYKTTPPVLVSDGSFTLYSKLTVDKSRWQQGNVFSCSVMHEALHNHYTQKSLSLSPG
heavy: B1 heavy
light: B1 light
notes: the condition stands under assay; also called AB0192 Lot AB0192-005
For the molecule B3, in the assay with Human CD16a V158, binding was characterised by a dissociation constant (Kd) of 174 nM, the koff was determined as 0.0194 s⁻¹ and the on-rate (kon) amounted to 111000 M⁻¹ s⁻¹. In the assay with mFc-hNKG2D, the dissociation constant (Kd) was 653 nM, the off-rate constant (koff) stood at 0.121 s⁻¹ and the kon turned out to be 185000 M⁻¹ s⁻¹. Moreover, in the assay with Human CLEC12A-His [8], the equilibrium dissociation constant (Kd) is 1.96 nM, the off-rate constant (koff) amounted to 0.00147 s⁻¹ and the kon was determined as 749000 M⁻¹ s⁻¹.

B4: F3'-1602 TriNKET (other)
chain: B1 chain
heavy: B1 heavy
light: B1 light
notes: CLEC12A scFv-Fc, NKG2D A49MI Fab-Fc, human IgG1 Fc; also called AB0237
Turning to B4, the Kd in [9] was 900 nM and 800 nM. The “fold difference in affinity vs trastuzumab” value in assay [10] and in [11] was ≤ 3 fold throughout.
